Consider three molecules from paper PMC6232179 (2018).

The target of experiment [1] is T1, His-tagged ER luminal domain of IRE1α (IRE1-NLD-His6-KDEL) (red fluorescent tag, covalently labelled (only in the MST of Figure 4C)).
T1 chain: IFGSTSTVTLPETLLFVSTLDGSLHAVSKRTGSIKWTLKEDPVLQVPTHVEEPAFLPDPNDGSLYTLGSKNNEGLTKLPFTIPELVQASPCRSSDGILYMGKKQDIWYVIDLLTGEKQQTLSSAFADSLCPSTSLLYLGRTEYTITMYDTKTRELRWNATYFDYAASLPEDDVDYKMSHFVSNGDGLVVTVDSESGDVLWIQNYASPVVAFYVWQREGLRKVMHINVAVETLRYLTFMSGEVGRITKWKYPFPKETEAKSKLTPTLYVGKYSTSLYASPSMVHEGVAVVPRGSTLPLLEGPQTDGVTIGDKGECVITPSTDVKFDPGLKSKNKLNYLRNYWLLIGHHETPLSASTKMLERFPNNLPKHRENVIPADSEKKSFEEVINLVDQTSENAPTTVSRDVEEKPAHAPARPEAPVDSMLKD
In words: MST; COX-2 labelled.

Experiment [2] concerns the target T1, His-tagged ER luminal domain of IRE1α …. The experiment in a line: MST; IRE1-NLD labelled.
The target is the same in experiment [3]. In words: SPR.

B1: COX-2 (prostaglandin endoperoxide synthase 2, PTGS2), purified His-tagged protein (enzyme)
chain: ANPCCSHPCQNRGVCMSVGFDQYKCDCTRTGFYGENCSTPEFLTRIKLFLKPTPNTVHYILTHFKGFWNVVNNIPFLRNAIMSYVLTSRSHLIDSPPTYNADYGYKSWEAFSNLSYYTRALPPVPDDCPTPLGVKGKKQLPDSNEIVEKLLLRRKFIPDPQGSNMMFAFFAQHFTHQFFKTDHKRGPAFTNGLGHGVDLNHIYGETLARQRKLRLFKDGKMKYQIIDGEMYPPTVKDTQAEMIYPPQVPEHLRFAVGQEVFGLVPGLMMYATIWLREHNRVCDVLKQEHPEWGDEQLFQTSRLILIGETIKIVIEDYVQHLSGYHFKLKFDPELLFNKQFQYQNRIAAEFNTLYHWHPLLPDTFQIHDQKYNYQQFIYNNSILLEHGITQFVESFTRQIAGRVAGGRNVPPAVQKVSQASIDQSRQMKYQSFNEYRKRFMLKPYESFEELTGEKEMSAELEALYGDIDAVELYPALLVEKPRPDAIFGETMVEVGAPFSLKGLMGNVICSPAYWKPSTFGGEVGFQIINTASIQSLICNNVKGCPFTSFSVPDPELIKTVTINASSSRSGLDDINPTVLLKERSTEL
modifications: red fluorescent tag, covalently labelled (only in the MST of Figure 4B)
As to B1, the Kd (in general, the constant that tells how readily two partners part at equilibrium) in experiment [1] worked out at 138 nM; in experiment [2], 155 nM.

B2: PDIA6 (protein)
chain: LYSSSDDVIELTPSNFNREVIQSDSLWLVEFYAPWCGHCQRLTPEWKKAATALKDVVKVGAVDADKHHSLGGQYGVQGFPTIKIFGSNKNRPEDYQGGRTGEAIVDAALSALRQLVKDRLGGRSGGYSSGKQGRSDSSSKKDVIELTDDSFDKNVLDSEDVWMVEFYAPWCGHCKNLEPEWAAAASEVKEQTKGKVKLAAVDATVNQVLASRYGIRGFPTIKIFQKGESPVDYDGGRTRSDIVSRALDLFSDNAPPPELLEIINEDIAKRTCEEHQLCVVAVLPHILDTGAAGRNSYLEVLLKLADKYKKKMWGWLWTEAGAQSELETALGIGGFGYPAMAAINARKMKFALLKGSFSEQGINEFLRELSFGRGSTAPVGGGAFPTIVEREPWDGRDGELPVEDDIDLSDVELDDLGKDEL
With B2, the Kd in experiment [3] came out at 3530 nM.

B3: BiP (protein)
chain: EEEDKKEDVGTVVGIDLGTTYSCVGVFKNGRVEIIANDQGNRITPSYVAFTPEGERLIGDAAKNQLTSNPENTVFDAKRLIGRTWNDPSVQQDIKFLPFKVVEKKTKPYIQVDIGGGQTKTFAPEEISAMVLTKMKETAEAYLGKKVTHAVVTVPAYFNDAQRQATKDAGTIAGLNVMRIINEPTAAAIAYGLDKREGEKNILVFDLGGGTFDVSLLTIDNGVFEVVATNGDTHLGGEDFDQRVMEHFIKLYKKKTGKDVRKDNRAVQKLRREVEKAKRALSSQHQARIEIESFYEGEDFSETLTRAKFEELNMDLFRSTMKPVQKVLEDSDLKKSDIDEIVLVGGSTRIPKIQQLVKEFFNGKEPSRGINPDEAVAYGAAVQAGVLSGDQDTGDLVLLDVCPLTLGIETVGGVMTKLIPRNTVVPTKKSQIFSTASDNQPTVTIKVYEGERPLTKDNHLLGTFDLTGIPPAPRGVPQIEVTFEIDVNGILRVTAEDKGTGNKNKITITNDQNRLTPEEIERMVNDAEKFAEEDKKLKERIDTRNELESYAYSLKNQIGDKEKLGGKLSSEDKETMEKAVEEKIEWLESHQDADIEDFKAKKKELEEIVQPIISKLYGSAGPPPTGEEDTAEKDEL
In turn, B3 yielded a Kd in experiment [3] of 1660 nM. This Kd is about 2.1-fold lower than that of the molecule before.
